We go through eight molecules from paper PMC6978801, “Structural Basis of Teneurin-Latrophilin Interaction in Repulsive Guidance of Migrating Neurons” (Cell, 2020).

Assay [1] deals with murine Latrophilin 3 ectodomain (mLphn3 ecto) (mouse) (UniProt Q80TS3). Nature of the assay: SPR; Biacore T200, equilibrium binding at 25 °C, PBS + 0.005% polysorbate 20 pH 7.5; Latrophilin constructs biotinylated at a C-terminal Avi-tag and coupled to a streptavidin-coated CM5 chip (670-730 RU ecto, 220 RU Lec-Olf); Ten2 ectodomains injected; apparent KD from a 1:1 Langmuir fit, analyte concentration calculated as monomer; Teneurin is dimeric, values indicative only.

Assay [2] has as its target murine Latrophilin 2 ectodomain (mLphn2 ecto) (mouse) (UniProt Q8JZZ7). Described as above.
In assay [3] the target is murine Latrophilin 1 ectodomain (mLphn1 ecto) (mouse) (UniProt Q80TR1). The description is as above.
In assay [4] the target is chicken Ten2 ectodomain, soluble (UniProt Q9DER5). Description: cell-based binding assay (immunofluorescence, HEK293 cells). Particulars: n = 12, parent: est. 58, read off a plot.
The target of assay [5] is mouse Teneurin 2 protein, soluble (UniProt Q9WTS5). The assay is described as above. As to conditions: n = 12; surface murine Lphn1TL, soluble His-tagged murine Ten2 (ecto); parent: est. 27; read off a plot.
The next assay deals with FLRT2 on K-562 cells (UniProt Q8BLU0). Nature of the assay: K-562 cell aggregation assay. Particulars: n = 3; parent: est. 47; read off a plot.
In a further assay the target is Ten2 on K-562 cells (UniProt Q9DER5). Nature of the assay: K-562 cell aggregation assay. Particulars: n = 3; parent: est. 56; read off a plot.
In another assay the target is Lphn1 on K-562 cells (UniProt Q80TR1). Nature of the assay: K-562 cell aggregation assay. As to conditions: n = 3; parent: est. 56; read off a plot.
A further assay addresses murine Lphn2 (ecto) (UniProt Q8JZZ7). Description: cell-based binding assay (immunofluorescence, HEK293 cells). As to conditions: n = 12; surface chicken Ten2LT, soluble His-tagged murine Lphn2 (ecto); read off a plot.
For another assay, the target named is murine Lphn1 (ecto). Described as above. Particulars: n = 12; surface chicken Ten2LT, soluble His-tagged murine Lphn1 (ecto); read off a plot.
In assay [6] the target is T1, chicken Teneurin 2 ectodomain (gTen2 ecto) (chicken, UniProt Q9DER5 429-2802).
T1 construct: Teneurin-2 (Ten2), chicken (Gallus gallus), soluble ectodomain ('ecto'); analyte concentration was calculated as monomer; also called chicken Ten2 (ecto); source: HEK293 cells, purified (HisTrap, Superdex200 size exclusion)
Description: SPR; Biacore T200, equilibrium binding at 25 °C, PBS + 0.005% polysorbate 20 pH 7.5; Latrophilin constructs biotinylated at a C-terminal Avi-tag and coupled to a streptavidin-coated CM5 chip (670-730 RU ecto, 220 RU Lec-Olf); Ten2 ectodomains injected; apparent KD from a 1:1 Langmuir fit, analyte concentration calculated as monomer; Teneurin is dimeric, values indicative only. As to conditions: both partners purified.

Assay [7] has as its target T2, murine Teneurin 2 ectodomain (mTen2 ecto) (mouse, UniProt Q9WTS5 401-2764).
T2 construct: Teneurin-2 (Ten2), mouse, soluble ectodomain ('ecto'); analyte concentration was calculated as monomer; also called mouse Ten2 (ecto); mouse Teneurin 2 protein; source: HEK293 cells, purified (HisTrap, Superdex200 size exclusion)
The description is as above. As to conditions: both partners purified.

murine Latrophilin 2 ectodomain (mLphn2 ecto) (mouse), sequence (Q8JZZ7 26-1487): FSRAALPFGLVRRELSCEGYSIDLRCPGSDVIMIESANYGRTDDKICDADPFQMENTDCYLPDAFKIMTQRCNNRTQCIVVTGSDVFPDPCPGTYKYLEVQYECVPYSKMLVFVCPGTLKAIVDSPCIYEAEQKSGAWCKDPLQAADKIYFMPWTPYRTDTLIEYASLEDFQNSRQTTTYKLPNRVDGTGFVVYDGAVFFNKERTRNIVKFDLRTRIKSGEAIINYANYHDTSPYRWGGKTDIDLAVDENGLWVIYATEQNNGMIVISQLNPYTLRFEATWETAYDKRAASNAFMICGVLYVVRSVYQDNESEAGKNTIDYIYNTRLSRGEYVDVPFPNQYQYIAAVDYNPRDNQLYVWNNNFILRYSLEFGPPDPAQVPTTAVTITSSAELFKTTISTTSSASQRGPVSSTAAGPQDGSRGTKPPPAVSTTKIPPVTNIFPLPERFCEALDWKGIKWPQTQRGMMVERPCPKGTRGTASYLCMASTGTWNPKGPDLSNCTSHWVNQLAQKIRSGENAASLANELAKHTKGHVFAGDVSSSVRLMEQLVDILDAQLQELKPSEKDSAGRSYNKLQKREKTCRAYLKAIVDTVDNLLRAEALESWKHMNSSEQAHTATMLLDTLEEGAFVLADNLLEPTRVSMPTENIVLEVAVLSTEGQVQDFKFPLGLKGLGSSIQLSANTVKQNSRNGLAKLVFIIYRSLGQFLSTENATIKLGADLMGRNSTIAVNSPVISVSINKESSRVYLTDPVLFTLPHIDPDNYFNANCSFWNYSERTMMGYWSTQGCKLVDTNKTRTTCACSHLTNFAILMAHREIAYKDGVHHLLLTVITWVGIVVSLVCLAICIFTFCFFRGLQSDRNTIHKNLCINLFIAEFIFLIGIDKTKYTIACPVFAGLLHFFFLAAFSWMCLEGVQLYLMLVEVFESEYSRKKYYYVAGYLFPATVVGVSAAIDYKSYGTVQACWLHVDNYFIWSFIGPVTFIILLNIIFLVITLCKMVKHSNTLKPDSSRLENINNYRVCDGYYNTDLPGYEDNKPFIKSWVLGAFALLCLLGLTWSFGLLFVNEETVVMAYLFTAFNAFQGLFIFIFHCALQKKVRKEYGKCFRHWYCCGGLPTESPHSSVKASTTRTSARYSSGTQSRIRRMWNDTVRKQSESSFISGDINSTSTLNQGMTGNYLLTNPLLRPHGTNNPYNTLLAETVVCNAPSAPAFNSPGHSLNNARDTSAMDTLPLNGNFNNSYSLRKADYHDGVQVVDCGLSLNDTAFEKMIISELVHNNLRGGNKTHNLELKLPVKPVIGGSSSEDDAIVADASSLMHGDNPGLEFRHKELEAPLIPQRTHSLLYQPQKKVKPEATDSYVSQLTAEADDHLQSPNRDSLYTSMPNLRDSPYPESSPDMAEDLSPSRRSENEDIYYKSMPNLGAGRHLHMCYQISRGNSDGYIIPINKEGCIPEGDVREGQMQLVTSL
murine Latrophilin 3 ectodomain (mLphn3 ecto) (mouse), sequence (Q80TS3 20-1537): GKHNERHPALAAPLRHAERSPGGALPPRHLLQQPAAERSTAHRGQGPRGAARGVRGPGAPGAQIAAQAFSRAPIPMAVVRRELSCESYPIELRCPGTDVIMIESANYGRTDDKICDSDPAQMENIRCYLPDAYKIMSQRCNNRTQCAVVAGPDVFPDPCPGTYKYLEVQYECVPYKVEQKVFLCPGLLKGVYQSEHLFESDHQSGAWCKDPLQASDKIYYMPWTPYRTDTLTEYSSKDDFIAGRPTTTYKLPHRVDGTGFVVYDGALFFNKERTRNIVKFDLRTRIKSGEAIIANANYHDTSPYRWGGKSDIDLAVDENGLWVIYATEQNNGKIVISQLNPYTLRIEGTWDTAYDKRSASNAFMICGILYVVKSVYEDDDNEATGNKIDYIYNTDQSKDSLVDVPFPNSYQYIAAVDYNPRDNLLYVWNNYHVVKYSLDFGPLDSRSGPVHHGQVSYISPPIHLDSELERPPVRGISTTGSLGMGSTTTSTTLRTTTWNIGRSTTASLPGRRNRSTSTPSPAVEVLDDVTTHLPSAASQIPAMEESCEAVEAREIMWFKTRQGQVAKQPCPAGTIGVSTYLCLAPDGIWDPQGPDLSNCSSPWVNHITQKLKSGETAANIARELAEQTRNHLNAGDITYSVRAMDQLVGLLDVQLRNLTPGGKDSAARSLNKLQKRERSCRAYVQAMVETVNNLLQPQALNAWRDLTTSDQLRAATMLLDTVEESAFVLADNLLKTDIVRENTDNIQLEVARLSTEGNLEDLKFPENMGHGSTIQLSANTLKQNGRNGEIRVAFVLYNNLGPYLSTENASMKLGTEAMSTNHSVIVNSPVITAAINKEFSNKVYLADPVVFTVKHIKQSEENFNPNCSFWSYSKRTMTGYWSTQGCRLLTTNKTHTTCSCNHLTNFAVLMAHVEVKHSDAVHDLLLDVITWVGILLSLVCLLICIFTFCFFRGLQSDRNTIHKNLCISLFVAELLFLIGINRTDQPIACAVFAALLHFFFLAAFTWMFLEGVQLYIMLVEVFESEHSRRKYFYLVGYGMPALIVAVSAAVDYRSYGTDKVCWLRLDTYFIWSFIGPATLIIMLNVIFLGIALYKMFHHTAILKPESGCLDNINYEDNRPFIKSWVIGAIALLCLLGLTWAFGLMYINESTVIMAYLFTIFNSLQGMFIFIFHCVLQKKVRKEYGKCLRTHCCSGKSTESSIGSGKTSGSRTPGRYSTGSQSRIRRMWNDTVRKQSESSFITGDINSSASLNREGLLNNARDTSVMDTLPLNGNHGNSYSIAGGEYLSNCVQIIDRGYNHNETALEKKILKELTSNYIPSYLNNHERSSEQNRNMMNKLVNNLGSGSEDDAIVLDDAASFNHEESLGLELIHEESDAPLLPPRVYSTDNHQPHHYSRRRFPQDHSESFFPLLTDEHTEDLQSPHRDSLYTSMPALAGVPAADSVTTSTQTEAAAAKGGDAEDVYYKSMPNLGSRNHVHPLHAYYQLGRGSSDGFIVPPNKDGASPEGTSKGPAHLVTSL
FLRT2 on K-562 cells, sequence (Q8BLU0 36-660): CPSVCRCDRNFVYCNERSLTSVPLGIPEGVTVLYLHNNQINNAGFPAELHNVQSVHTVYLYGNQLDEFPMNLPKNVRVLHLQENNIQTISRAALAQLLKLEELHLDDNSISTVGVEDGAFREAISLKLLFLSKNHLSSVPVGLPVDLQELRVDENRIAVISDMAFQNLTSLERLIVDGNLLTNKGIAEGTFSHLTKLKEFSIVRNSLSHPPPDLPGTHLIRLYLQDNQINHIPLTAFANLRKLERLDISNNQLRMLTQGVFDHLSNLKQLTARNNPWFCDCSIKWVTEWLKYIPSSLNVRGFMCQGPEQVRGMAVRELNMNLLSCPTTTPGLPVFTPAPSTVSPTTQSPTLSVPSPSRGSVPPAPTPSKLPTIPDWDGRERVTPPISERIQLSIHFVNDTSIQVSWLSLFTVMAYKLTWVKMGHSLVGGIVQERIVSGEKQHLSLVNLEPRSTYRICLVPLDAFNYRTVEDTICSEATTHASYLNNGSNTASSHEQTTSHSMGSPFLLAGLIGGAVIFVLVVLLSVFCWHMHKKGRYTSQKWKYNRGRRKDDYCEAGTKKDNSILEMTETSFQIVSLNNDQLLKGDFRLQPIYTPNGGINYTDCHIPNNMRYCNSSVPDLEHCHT

With “murine Teneurin 2 ectodomain (mTen2 ecto) (from UniProt Q9WTS5 401-2764) (domain or fragment)”, the Kd in assay [1] is 490 nM; in assay [2], 100 nM; in assay [3] it was 35 nM.
For the molecule “murine Lphn1 (mVenus-tagged, surface of HEK293 cells) L39A; P51G; D54A; D67A; D72A”, the response in [4] (surface murine Lphn1TL2, soluble His-tagged chicken Ten2 (ecto)) came to 1.5%.
For the molecule “murine Lphn1 (mVenus-tagged, surface of HEK293 cells) E39N”, the response in assay [5] was determined as 0%; in [4] (surface murine Lphn1TL, soluble His-tagged chicken Ten2 (ecto)), 0%.
In the case of “Lphn1 on K-562 cells (from UniProt Q80TR1) E39N”, the other: aggregation (%) with FLRT2 on K-562 cells came to 68%; with Ten2 on K-562 cells, 5%.
As for “Ten2 on K-562 cells (from UniProt Q9DER5) 1892N; K1894T”, the other: aggregation (%) with Lphn1 on K-562 cells amounted to 5%.
On to “chicken Ten2, transmembrane construct at the surface of HEK293 cells (from UniProt Q9DER5) 1892N; K1894T”, for which the results for the response in the assay with murine Lphn2 (ecto) and with murine Lphn1 (ecto) were 2% and 0%, respectively.
Take “chicken Teneurin 2 ectodomain (gTen2 ecto) (from UniProt Q9DER5 429-2802) (domain or fragment)”: the Kd in assay [1] is 680 nM; in assay [2], 60 nM; in assay [3], 40 nM.

B1: murine Latrophilin 1 Lec-Olf domains (mLphn1 Lec-Olf) (domain or fragment, mouse, UniProt Q80TR1 29-395, looked up)
chain: GLPFGLMRRELACEGYPIELRCPGSDVIMVENANYGRTDDKICDADPFQMENVQCYLPDAFKIMSQRCNNRTQCVVVAGSDAFPDPCPGTYKYLEVQYDCVPYIFVCPGTLQKVLEPTSTHESEHQSGAWCKDPLQAGDRIYVMPWIPYRTDTLTEYASWEDYVAARHTTTYRLPNRVDGTGFVVYDGAVFYNKERTRNIVKYDLRTRIKSGETVINTANYHDTSPYRWGGKTDIDLAVDENGLWVIYATEGNNGRLVVSQLNPYTLRFEGTWETGYDKRSASNAFMVCGVLYVLRSVYVDDDSEAAGNRVDYAFNTNANREEPVSLAFPNPYQFVSSVDYNPRDNQLYVWNNYFVVRYSLEFGPPD
modifications: biotinylated enzymatically at the C-terminal Avi-tag
notes: The limits 29-395 are printed for the Lec-Olf construct that was crystallised; source: HEK293 cells; biotinylated enzymatically; not shown: Avi-tag, C-terminal, kept
As for B1, the Kd is 590 nM in assay [6] and 290 nM in [7].
